B1: TR4: human testicular orphan nuclear receptor 4, SEQ ID NO:16; expressed from plasmid or in vitro translated (protein)
chain: MTSPSPRIQIISTDSAVASPQRIQGSEPASGPLSVFTSLNKEKIVTDQQTGQKIQIVTAVDASGSPKQQFILTSPDGAGTGKVILASPETSSAKQLIFTTSDNLVPGRIQIVTDSASVERLLGKTDVQRPQVVEYCVVCGDKASGRHYGAVSCEGCKGFFKRSVRKNLTYSCRSSQDCIINKHHRNRCQFCRLKKCLEMGMKMESVQSERKPFDVQREKPSNCAASTEKIYIRKDLRSPLIATPTFVADKDGARQTGLLDPGMLVNIQQPLIREDGTVLLATDSKAETSQGALGTLANVVTSLANLSESLNNGDTSEIQPEDQSASEITRAFDTLAKALNTTDSSSSPSLADGIDTSGGGSIHVISRDQSTPIIEVEGPLLSDTHVTFKLTMPSPMPEYLNVHYICESASRLLFLSMHRARSIPAFQGLGQDCNTSLVRACWNELFTLGLAQCAQVMSLSTILAAIVNHLQNSIQEDKLSGDRIKQVMEHIWKLQEFCNSMANWDIDGYEYAYLKAIVLFSPDHPGLTSTSQIEKFQEKAQMELQDYVQKTYSEDTYRLARILVRLPALRLMSSNITEELFFTGLIGNVSIDSIIPYILKMETAEYNGQITGVSL
B2: TR2: human testicular orphan nuclear receptor 2, 603 amino acids (protein, UniProt P13056 1-603, looked up)
chain: MATIEEIAHQIIEQQMGEIVTEQQTGQKIQIVTALDHNTQGKQFILTNHDGSTPSKVILARQDSTPGKVFLTTPDAAGVNQLFFTTPDLSAQHLQLLTDNSPDQGPNKVFDLCVVCGDKASGRHYGAVTCEGCKGFFKRSIRKNLVYSCRGSKDCIINKHHRNRCQYCRLQRCIAFGMKQDSVQCERKPIEVSREKSSNCAASTEKIYIRKDLRSPLTATPTFVTDSESTRSTGLLDSGMFMNIHPSGVKTESAVLMTSDKAESCQGDLSTLANVVTSLANLGKTKDLSQNSNEMSMIESLSNDDTSLCEFQEMQTNGDVSRAFDTLAKALNPGESTACQSSVAGMEGSVHLITGDSSINYTEKEGPLLSDSHVAFRLTMPSPMPEYLNVHYIGESASRLLFLSMHWALSIPSFQALGQENSISLVKAYWNELFTLGLAQCWQVMNVATILATFVNCLHNSLQQDKMSTERRKLLMEHIFKLQEFCNSMVKLCIDGYEYAYLKAIVLFSPDHPSLENMEQIEKFQEKAYVEFQDYITKTYPDDTYRLSRLLLRLPALRLMNATITEELFFKGLIGNIRIDSVIPHILKMEPADYNSQIIGHSI
modifications: full-length
notes: human testicular orphan nuclear receptor 2, 603 amino acids

Legend:
PR = target: T1, PR (Homo sapiens, UniProt P06401); assay: PR-mediated transactivation (MMTV reporter); assay type: cell-based
T1 construct: expressed in transfected cells; host or cells: H1299 (pSG5-PR)
T1 sequence (P06401 1-933): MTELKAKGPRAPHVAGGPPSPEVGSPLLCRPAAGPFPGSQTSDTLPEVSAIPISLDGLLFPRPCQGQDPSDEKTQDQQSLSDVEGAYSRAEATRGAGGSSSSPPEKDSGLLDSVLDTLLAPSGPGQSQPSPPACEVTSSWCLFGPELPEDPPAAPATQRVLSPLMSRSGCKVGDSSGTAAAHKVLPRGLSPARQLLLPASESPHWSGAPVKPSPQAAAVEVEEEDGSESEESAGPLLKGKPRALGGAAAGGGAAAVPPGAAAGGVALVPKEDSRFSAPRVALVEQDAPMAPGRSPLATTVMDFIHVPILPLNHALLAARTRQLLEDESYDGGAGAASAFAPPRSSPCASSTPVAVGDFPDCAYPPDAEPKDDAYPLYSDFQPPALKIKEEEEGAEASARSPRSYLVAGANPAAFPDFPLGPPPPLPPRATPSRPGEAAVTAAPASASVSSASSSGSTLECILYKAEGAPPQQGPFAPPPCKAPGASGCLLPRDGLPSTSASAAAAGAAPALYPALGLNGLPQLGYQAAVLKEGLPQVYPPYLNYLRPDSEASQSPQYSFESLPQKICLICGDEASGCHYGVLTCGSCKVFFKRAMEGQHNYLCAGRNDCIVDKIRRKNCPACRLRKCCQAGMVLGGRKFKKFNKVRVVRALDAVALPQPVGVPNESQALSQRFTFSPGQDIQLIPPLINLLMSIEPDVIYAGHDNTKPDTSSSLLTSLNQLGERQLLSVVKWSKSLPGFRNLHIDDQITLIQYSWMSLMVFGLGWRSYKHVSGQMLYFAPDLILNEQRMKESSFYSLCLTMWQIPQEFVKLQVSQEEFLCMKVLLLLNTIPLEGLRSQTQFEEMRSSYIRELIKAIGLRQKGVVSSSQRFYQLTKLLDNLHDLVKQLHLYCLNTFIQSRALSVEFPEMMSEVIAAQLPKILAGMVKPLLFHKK

ER-ERE = target: T2, ER-ERE (Homo sapiens, UniProt P03372); assay: EMSA with ERE probe; assay type: binding
T2 construct: Human full-length ER was inserted into the EcoRI site of pSG5 to produce pSG5-ER; host or cells: TNT coupled reticulocyte lysate, in vitro translation
T2 sequence (P03372 1-595): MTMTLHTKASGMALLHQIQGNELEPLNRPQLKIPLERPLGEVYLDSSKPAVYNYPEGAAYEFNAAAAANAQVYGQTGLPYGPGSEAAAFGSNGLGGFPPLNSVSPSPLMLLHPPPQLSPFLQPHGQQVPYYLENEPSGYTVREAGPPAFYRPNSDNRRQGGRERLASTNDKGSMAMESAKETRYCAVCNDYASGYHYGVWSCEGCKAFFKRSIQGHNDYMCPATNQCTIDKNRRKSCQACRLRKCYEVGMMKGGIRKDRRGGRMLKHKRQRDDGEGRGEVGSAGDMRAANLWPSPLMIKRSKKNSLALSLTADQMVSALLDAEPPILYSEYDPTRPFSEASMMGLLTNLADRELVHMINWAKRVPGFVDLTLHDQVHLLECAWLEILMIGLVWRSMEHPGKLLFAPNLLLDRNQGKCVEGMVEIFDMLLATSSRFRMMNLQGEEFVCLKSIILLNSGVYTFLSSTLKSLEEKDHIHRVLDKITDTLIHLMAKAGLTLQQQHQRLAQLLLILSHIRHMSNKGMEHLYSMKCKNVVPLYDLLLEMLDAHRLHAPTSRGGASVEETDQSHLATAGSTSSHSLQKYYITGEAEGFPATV

MCF7-TR2 cells = assay: MTT growth assay, MCF7-TR2 cells; assay type: cell-based
Method: (A) Growth assays were performed by MTT method as instructed by manufacturer (Sigma). 5×10^3 MCF7-pBIG and MCF7-TR2 cells were seeded in 24-well plates and incubated in RPMI with 10% CD-FCS for 48 h. […] After 3- and 5-day treatment, cells were harvested for MTT assay. Data represents the relative folds of MTT O.D.570 values at day 5 divided by that at day 3. […] Cells were then trypsinized and fixed overnight in 70% Ethanol. After cells were incubated with 1 mg/ml RNase A (Sigma) and propidium iodide (Roche Molecular Biochemicals), the DNA contents of cells were measured by a flow cytometry. (C) Percentage of growth suppression by TR2. MCF7-TR2 cells were seeded at 5×10^3 cells per well in 24-well plates. […] The treatments were changed every two days. The indices of cell growth were determined by MTT assay. The MTT values from cells without doxycycline were set as 100% in each kind of treatment. Values are represented by the percentage of growth suppression from cells with doxycycline to that without doxycycline.

Row | Molecule | PR-mediated MMTV-LUC reporter activity (PR; H1299 cells, 10 nM progesterone, increasing TR4) | ER-[32P]ERE binding band (ER-ERE; increasing amounts of in vitro expressed TR4) | PR-mediated transactivation (MMTV-CAT) (PR; H1299 cells, 10^−8 M progesterone, increasing TR2) | PR-mediated transcription (MMTV-CAT) (PR; T47D cells, Example 2) | Cell growth suppressed by TR2, compared to cells without doxycycline (MCF7-TR2 cells; all-trans retinoic acid treated cells (all-trans RA)) | Cell growth suppressed by TR2, compared to cells without doxycycline (MCF7-TR2 cells; presence of E2, 6- and 8-day treatments) | Cell growth suppressed by TR2, compared to cells without doxycycline (MCF7-TR2 cells; under 5 μM tamoxifen treatment) | Intensity of ER-ERE supershift (ER-ERE; increasing amount of TR2, absence or presence of 1 μM E2, Example 1) | Intensity of ER-ERE complexes (ER-ERE; increasing amounts of TR2, absence or presence of 10 nM E2, Example 2)
1 | B1 | failed to suppress | reduced |  |  |  |  |  |  | 
2 | B2 |  |  | little effect | marginal effect | 29-45% | 71-72% | 8-9% | decreased | decreased

From US20030235860A1, “Interactions between AR, ER, TR2, and TR4” (priority 1999, published 2003)
